For one substance, reduction of peak current amplitude results are on record in patent US7262289.

This assay addresses KCNQ2+KCNQ3 channel (human KCNQ2 co-expressed with human KCNQ3) (human) (UniProt O43526). As to the kind of experiment: cell-based or functional assay.

Sequence of KCNQ2+KCNQ3 channel (human KCNQ2 co-expressed with human KCNQ3) (human) (O43526 other isoform, or with tags, fused parts or gaps, chain 1 of 2): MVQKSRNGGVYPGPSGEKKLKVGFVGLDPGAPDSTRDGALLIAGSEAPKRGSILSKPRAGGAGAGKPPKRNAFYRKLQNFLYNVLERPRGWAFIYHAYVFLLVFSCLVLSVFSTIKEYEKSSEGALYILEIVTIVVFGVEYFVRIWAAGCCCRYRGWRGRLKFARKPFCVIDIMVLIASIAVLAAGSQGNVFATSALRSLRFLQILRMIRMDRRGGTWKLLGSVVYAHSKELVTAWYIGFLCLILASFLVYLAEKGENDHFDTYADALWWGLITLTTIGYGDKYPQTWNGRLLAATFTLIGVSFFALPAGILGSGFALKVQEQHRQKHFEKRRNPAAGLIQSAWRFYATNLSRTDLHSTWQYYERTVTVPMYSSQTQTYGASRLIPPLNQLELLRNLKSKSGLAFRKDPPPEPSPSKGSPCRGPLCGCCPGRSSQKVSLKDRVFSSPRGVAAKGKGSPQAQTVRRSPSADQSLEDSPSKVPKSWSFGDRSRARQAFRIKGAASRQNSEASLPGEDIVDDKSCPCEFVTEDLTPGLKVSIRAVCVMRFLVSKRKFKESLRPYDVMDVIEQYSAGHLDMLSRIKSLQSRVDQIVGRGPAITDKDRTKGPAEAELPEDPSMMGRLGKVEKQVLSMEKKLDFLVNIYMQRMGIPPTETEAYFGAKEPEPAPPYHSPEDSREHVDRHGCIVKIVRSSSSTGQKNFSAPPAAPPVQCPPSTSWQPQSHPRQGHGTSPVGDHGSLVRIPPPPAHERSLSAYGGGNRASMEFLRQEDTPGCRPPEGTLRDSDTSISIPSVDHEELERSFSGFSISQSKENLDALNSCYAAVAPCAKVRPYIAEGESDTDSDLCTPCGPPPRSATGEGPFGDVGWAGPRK
Sequence of KCNQ2+KCNQ3 channel (human KCNQ2 co-expressed with human KCNQ3) (human) (O43526 other isoform, or with tags, fused parts or gaps, chain 2 of 2): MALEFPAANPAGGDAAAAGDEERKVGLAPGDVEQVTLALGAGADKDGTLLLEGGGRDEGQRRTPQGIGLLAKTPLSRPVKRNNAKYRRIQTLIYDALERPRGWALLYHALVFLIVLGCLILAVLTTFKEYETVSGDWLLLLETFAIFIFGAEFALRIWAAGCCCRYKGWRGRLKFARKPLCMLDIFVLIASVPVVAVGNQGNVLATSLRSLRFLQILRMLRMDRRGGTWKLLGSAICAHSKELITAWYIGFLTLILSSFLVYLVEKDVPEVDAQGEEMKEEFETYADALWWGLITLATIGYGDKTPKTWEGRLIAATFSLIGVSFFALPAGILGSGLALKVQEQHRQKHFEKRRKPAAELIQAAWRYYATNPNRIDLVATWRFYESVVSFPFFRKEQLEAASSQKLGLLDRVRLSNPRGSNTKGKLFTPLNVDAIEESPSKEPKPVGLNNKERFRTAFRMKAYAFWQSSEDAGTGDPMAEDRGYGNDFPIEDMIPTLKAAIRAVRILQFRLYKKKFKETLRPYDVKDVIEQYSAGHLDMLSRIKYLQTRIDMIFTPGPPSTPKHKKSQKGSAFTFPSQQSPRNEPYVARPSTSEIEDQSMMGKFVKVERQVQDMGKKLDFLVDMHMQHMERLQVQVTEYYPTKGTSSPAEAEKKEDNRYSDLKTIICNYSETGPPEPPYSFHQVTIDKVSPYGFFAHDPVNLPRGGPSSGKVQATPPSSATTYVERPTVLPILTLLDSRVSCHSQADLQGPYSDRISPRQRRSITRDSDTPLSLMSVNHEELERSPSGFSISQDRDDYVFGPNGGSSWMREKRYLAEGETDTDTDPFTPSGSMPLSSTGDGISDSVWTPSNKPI

Substance KCNE1 showed a reduction of peak current amplitude at +30 mV in oocytes co-expressing KCNE1 of 62%.
